{"source": "paper PMC2736960", "about": "“Cloning and characterization of a glucosyltransferase from Crocus sativus stigmas involved in flavonoid glucosylation” (BMC Plant Biology, 2009)", "format_in_all_cases": "biochemical, Crocus sativus", "key": {"[1]": {"substrate": "O=c1c(O)c(-c2ccc(O)c(O)c2)oc2cc(O)cc(O)c12", "experiment": "HPLC of glucoside formed, Lineweaver-Burk", "conditions": "7-O-glucoside formation (preferred position), 2.5 mM UDP-glucose, 50 mM Tris-HCl pH 7.5, 14 mM 2-mercaptoethanol, 30°C", "from_the_text": "(§1) HPLC of glucoside formed, Lineweaver-Burk on CsGT45"}, "[2]": {"substrate": "O=c1c(O)c(-c2ccc(O)cc2)oc2cc(O)cc(O)c12", "experiment": "HPLC of glucoside formed, Lineweaver-Burk", "conditions": "7-O-glucoside formation, 2.5 mM UDP-glucose, 50 mM Tris-HCl pH 7.5, 14 mM 2-mercaptoethanol, 30°C", "from_the_text": "as §1"}, "HPLC of glucoside formed": {"substrate": "O=c1ccn([C@@H]2O[C@H](CO[P@@](=O)(O)O[P@@](=O)(O)O[C@H]3O[C@H](CO)[C@@H](O)[C@H](O)[C@H]3O)[C@@H](O)[C@H]2O)c(=O)[nH]1", "experiment": "HPLC of glucoside formed", "conditions": "constant kaempferol as acceptor (level not given)"}}, "data": [{"protein": "CsGT45 (Crocus sativus) (protein) MEQHQPNILVVTYPAQGHINPALHLAKHLAADTKGLLITFSTAISAHRKMFPESTEPDQEVEDGPITYIPFSDGYDDGFQRDKHDGKQFRSRFKTVGSNTLSAIIQNLEHRGRKVSCVIYTFFVSWAADVARQHAIPSVQYWIQPATVFAIYYHYFHGYESVVAAHSHDPSYPINLPGLSPVQVRDLPSFLTIKPDDPYAVVLSMIRDSFEGLDREETKTKVLVNTFGQLEADAILAVDKMDIIPVGPILPCKGGVSRGDLLKEDEKGYMEWLDSKPENSVVYVSLESLAVLKKQQKFLILKGLKDSGRPYLWVVRRDSGLEGVELGDWDGDGDGDNGMVVGWCSQVSVLSHPSVGCFVTHCGWNSTMESLASGVPTIGVPQWSDQPTCAALAEKDWGIGVRSEVNGDGILEGGELKRCLDLVLGDGERGVEIRRKVEFWKDKATEAISFGGSSDKNLRTFVDQITGYDPNVSSVGFWKDKAIHRQHCEESESASPS", "values": [{"measurement": "Km", "setting": "[1]", "result": "21.50 ± 2.3", "unit": "µM"}, {"measurement": "Km", "setting": "[2]", "result": "15.6 ± 1.2", "unit": "µM"}, {"measurement": "Km", "setting": "HPLC of glucoside formed", "result": 600, "unit": "µM"}]}]}
